The target of assay [1] is EFm1 D166Q, full-length chain (E. faecalis phage IME-EF1). The experiment in a line: crystal structure; EFm1_(D166Q) 15 mg/mL, sitting drop, 16 °C; 2.2 Å; phases by Se-Met SAD.
Assay [2] concerns the target C-terminal domain EFm1 166-237 aa (E. faecalis phage IME-EF1). Kind of assay: crystal structure; EFm1_(166–237 aa) 10 mg/mL, sitting drop, 16 °C; 2.0 Å; eight monomers in the asymmetric unit.

For the substance “8 kDa C-terminal fragment of EFm1, translated from the alternative start codon M168 (domain or fragment)”, the stoichiometry N (CTD fragments per full-length chain) in assay [1] stood at 3. One may read the stoichiometry N as the number of molecules, sites or subunits per partner or assembly. In the case of “C-terminal domain EFm1 166-237 aa (domain or fragment)”, in assay [2], the stoichiometry N was 4.

(Values after publication PMC9316690.)
